The numbers were not newly measured in publication PMC4365979, which cites them from elsewhere.

For this data set, the target named is Rab11 (Homo sapiens) (UniProt P62491).

pKd: −log10 of the molar value.

UniProt P62491, sequence (P62491 2-213): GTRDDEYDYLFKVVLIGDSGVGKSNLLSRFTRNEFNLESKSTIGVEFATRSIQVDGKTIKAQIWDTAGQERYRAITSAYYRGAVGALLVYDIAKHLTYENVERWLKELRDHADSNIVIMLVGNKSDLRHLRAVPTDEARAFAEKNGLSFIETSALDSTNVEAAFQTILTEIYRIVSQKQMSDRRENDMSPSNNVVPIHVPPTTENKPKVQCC

As a reminder, the pKd is the negative decadic logarithm of the Kd, by convention in mol/L. In the case of Rab11-FIP1/RCP (from UniProt Q6WKZ4), the pKd is 7.30.
